The values below come from the NTF2 design screens of Basanta et al. (2020).

This data set can be described thus: protease stability score; higher = more stable; yeast display proteolysis, trypsin and chymotrypsin.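 Further: relative to predicted unfolded state with 0 unfolded-like and 1 meaning tenfold more protease.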
Consider “SDEIEEVKTFVRLFTKDLETGNEEDLKRLADPNTRLDVNGREIHGWKSMEHRYRELMEKYKNLRIEVKIDDIRVQGDKIHIHTTIKLDYDGVDIELSSWLVIHKINGRWFVRSIEME”, for which the protease stability score turned out to be 0.605.
The result for “SDEKKRLDDLAMTFLTLWMTGDWDHFARQADPHVRSDINGKELHGREIFVNFLREEMTRLGVDHFELHSVTVIDGKVHFDGEVDVNGVRHKTILWSVIFNGRIKSQEEEIR” reads 1.15; that for “SDELEEALKWLEELMRLTLTGNWDRLDELVDPNAKEVINGKELHGMHFFRRVLHEIRFTHIDVQDIRLQGNYVEVDLRVEGNIDGRHVDLHTEVILLKVNGRWLHKMRILR”, 1.56.
Turning to “SDEMEEYEDFMKRVLEALETGDFREIRHLFDPDVKIHIDGRDIVGRESYTEHVRKWREDLGFDHIHLKIHDVKLFDGQIHVDARLEIRIGDKRDSHNVEFRLHKVDGQWLVRRVHVH”, the protease stability score was 1.6.
Take “SDEQEISEFILRIWLELVLTGDEKMMKKLFDPNTRFEINGVDIHGMESIAEHLLREREEWRSHITLTDREIQGDKVRVHTILKVDINGQHLRHHTRIIIIIINGRIHSIHIRVE”: the protease stability score is 0.673.
“SDEQEMLTRIIEIFFHAVLTGDEETLIEMLDPHARLDVNGVTVIGMEKIWHHVEEMRFKDTKIHDIDVQGNKMKVDGRLDGQINGREHRFRTIIIIEKINGKWLVKRIIIL” gave a protease stability score of 2.44.
The sequence “SDEQRDVKFMLDQWLRSIETGNEDEIRHLVDPNVRSDINGQTHHGRDEYVRHMVEIRVILESIELHDLRWQGDKIDVDAIVQGTIIVNGRKTRFIERVHLHSVKVNGRWEIKEYRVV” gave a protease stability score of 1.42.
“SDETKRLEEHLKHRFRSMVTGNEEDISRLMDPNAKLIVGDKEFHGREIVLKLLLRWAHEMRLRHEEVEEIHIIGDYVRINGILHMEVGDKSIEIHTVIIILKIDGRWRDKTEHYG”: the protease stability score was found to be 0.654.
In the case of “SDEYRRNHDLARDYVELFRTGNEEHLYELADPNTMLHIGEFQSHGREHVYEWLEKIHRHWGWENVEFRLESMQVQGDYATIHGLHKFNGRFIRMDHIIVVINGRMESIRVEIR”, the protease stability score is 0.397.
In turn, “SDFEEEMKESFRLWVHALMTGDEDLLVELVDPDVRLHVGDKDFHGREHFRRWVHEFILRADHHIIHLRDFDVQGDKLHLHTQVDIKVNGQRHHTRVRIIAIKVDGRWVLTQFDVI” gave a protease stability score of 2.27.
With “SDFEEITRKITEIITRAFFTGDWRQIERLMDPEVRNELTIGDKRIERHGRENLVHLLEEAGIDVIRIRSVEIRFFNGRLEVRIDHEVTINGVHFKTVIVVIMIKIDGRWVVHSWSFHFE” the figure was 0.959.
“SDHDEISHDMFRLWLELHLTGDPKVLADLFDPRVRLILEVGDKRIEVHGREEFERWYREEMRHLRIEHIHIEHVEVQGEKVHAIIEVHTHVNGRRHIHKTHITMDFIDGRFKRMKIDVK” yielded a protease stability score of 2.14.
“SDHDKRVMHIWRAVLESYLTGDEHTLKELIDPNTRFFIGDKEYHGMETFSRYARRMYEHLRFSIEVKHEDAINGRYDTHLTLHWEIGDKTDTYDTRLHLDVYDGVVKRLEIRVH”: the protease stability score is 1.46.
For “SDHEHMILHYARHVLELWFTGDWEIFEKLADPRAKMTVNGQELHGRESVSKWMHDKKEEIRMRDLRIHHIDVQGDFVILHLRVDFEVNGQRIDTHIEIYILVVNGQLREIEIREK”, the protease stability score came out at 0.853.
With “SDHRRLLEELLKIIIKAMMTGDESTLERMFDPNVRINIDGVDDHGWESFDRMFHELRIDHARVEYIDVVNGRARVHTNFEVHFDGRRIHWETEIVVVIVNGRNREVSIIRH”, the protease stability score turned out to be 0.739.
For the sequence “SDIDELDRELMEHTLRTIRTGDEETVHRLLDPDARTLINGREYHGREWATKMMSDWNRELGIDHLEIKHVDLINGKVRIDVKITVGDKEFHMTMVYNKVNGKWINHSIHIH”, the protease stability score stood at 0.409.
As to “SDIDNEADNLLRELSEVHQTGDWKTLLELADPNVQLIVNGRDLHGWEHLARRFTELRIHHVDHRIKHIHSYDGRVDLDGRLHYDGEINGRRDILHHEVSVHTKKIDGRWIISNIQIN”, the protease stability score is -0.21.
Sequence “SDIEDESEKFVRMFLHSYETGDWKSLREMFDPNARTIIGDKHTHGRELAVELWEDLFKRLGIKHIEVTHVHIRVINGRIDVRIEVHLNQGEFRYHIIIIVHVTKFNGVWLLTEFRIEEK” displayed a protease stability score of 1.27.
Regarding “SDIEDHAIEFFSNELWSWHTGDEHDLKKLLDPNARIYINGVEVHGRERVLEDLIENMRRRGVRVNEVRVRDFHIVGNFLHFDVRIKYRVGDKILTYEVRILVLKIDGVWFFSELRIE”, the protease stability score is 1.55.
The result for “SDIEEMYRINLEIFEHSQQTGDWRMISHMADPNVRISVGDKEIHGRELFEKHLRDTVEKLGAEVHWELNHVRIQGDKLLVRGHLRIKYGDKHETFDIELYADKVDGKWLIHEIRVD” reads 1.44; that for “SDKDHLFKWAVRHLLEFTQTGNWEHMEHYLDPNVRLNFHIDGVSIERHGMEFLKKLLRDLSEDAGLDNINVQLHSFEIQGEKVNIHLKETFNGRHHETHNVVFKFDGRWKLTKSEVFFL”, 0.913.
The result for “SDKDKEFEKLFREYLRDLLTGDEESLRRLIDPNARFSYEVGDKTEERHGREEAVRWIIEIRIHSFRLRNSTYIGDKMHLEVESDGQYDGKRRFTEVHIEIILINGRVHEVHVWYV” reads 1.01; that for “SDKEEEAHRLLELLIHWYRTGDFETWRQLMDPHVRNVVDVNGRELHHHGREEVTDSLRFFWEHLGIKHVHFRHVEVQGDKIKLHGQQRVDGQEHQSDFIFIIVDGRVKFIFIHLR”, 0.649.
In the case of “SDLDDMATKLIHEWIHAELTGDFKRIEELIDPHVRIVIEVNGRRIELIGREELRRWLEEWMEEMRHEIKLTHIEVQGEKTHVDTHLVIRAENHSYHHKTSRIFIIINGRMHSIHVHIR”, the protease stability score was 1.7.
The sequence “SDLDEEARRWLEKHLKNFFTGDWDKFMNNVDPNVRYIVGDKHKIGMESFSKDEKEHRDQYDHLEFRIHHEDTYGEKAVSDMHVTYHINGREIRRRVHLSFLVINGKIKSVRIEFE” gave a protease stability score of 0.469.
The sequence “SDLDEVARHATQLIEEVQQTGDWHTLMRLADPNTRLLIGDKVIHGMTELIRILDELYERWGVSKVKVRLHDVRVQGDKVDVDTRSEFNGREVKVRFIIRKVDGRWHLKSVEEHLD” displayed a protease stability score of 1.12.
With “SDLDHQARRALEETFKAFETGDEHTWNRLVDPHVRLNVNGQEFHGMELIREWFKQDRDELRLKTIELKRVSVQGDYVHIDSTYYYEYNGQHRILEVHIHAVKFDGRWVVKRIHIH” the figure was 0.662; with “SDLDHRLRKLAEDLSRILETGNWRLMHKLADPNVKEDINGVEFHGRELLVKWLEDLLKELRVHFRVDHYDIQGNFLRVEITNNVFINGVQKVRDERLEVNMFDGKEKENRVRVE”, 0.717; with “SDLDKLAIKIAKILVKNLETGNEKMLEHLLDPHVKLHIDGVTFIGREEVNKWVKHELDEMRSRWEVHDRRTQGEYAHTDSRMYLHINGKDIEIEVTIIFNVVNGRVTFIEHRIH”, 0.084.
As for “SDLDQEMKTWLEETIRLLNTGNEEEWTKLADPNARVEIGDKHYHGWESLEELRKIFGVEKIDYRFTRIEVQGEKADSDVRIEVNGRELHVRLIIVVVNGRHKSMRVIFG”, the protease stability score is 1.99.
As for “SDLDRLLEEMAKRFVEVMLTGDEEIMKELIDPNARVDWDGVEIHGWKEISEWLKEEIERQENYRYEFEFRDLDVIGNKAVFFTDLHFNINGRRIRTHSVYKVNVVNGKVKHVHVEIR”, the protease stability score came to 1.21.
The sequence “SDLEDEFREFLEEWIKHWLTGDEETLFHLADPHAQIDINGREHHGMDEWMHILLKHLKELGARIEIRIEDIRVQGEKTEVDGNLILHINGRRKELKVELIVRVVNGRLKSIEIRIH” showed a protease stability score of 1.02.
Consider “SDLEEEALNLAREWMHNWVTGNEEREEELLDPNVRSDINGRHFHGRERISRMIRYLLDEIRVHDVKEHDMEIQGEKVRIDGRIDGEVNGKRKILVMHFHIVVIDGVIHSVEVRIE”, for which the protease stability score stood at 1.18.
